Laboratory results taken from a protein production outcome set (Wang et al. 2014).

Assay: label from the status in PepcDB records

| Sequence | protein production |
| --- | --- |
| MNTLNRYIGWEVIKGAAFAALVLLALLNFFTFADELRDLGEGNYGLGSIFLYLTLTSPHSLYELIPSGALIGGLVVLGNMANNHELVAMQAAGVSRGRIVWAVLRAGIVISLISVVISEYVIPPAERAAQMLKATATRQQVASQTKYGVWIRDGNVYVNVREIENQERLGDIHIFEISPDGRPALAMHAARASFDRGIWKLEDIGLTRFDPAGNAAIAEHKEQEDWSSVLSPDMLDVFIVRPENLSAQDLAKYMAYQTENAQKSLAVEQAFWGRMVNPLITLAMLLLAIPFVFNARRDVSSGQRIVIGVTIGLGFYLTNRMVSHLGLVYEVNAPLTMVTPPLVVLFAALAAFRRRP | failed |
| MKTRLMEAWKAHRSVMVQMPTGTGKTHLLASVVSEFVSSAGSGVWLIAHRRELVAQMEETLAKYGIRREDTPVRVMSVQWLSRHWNEAGDAPGLIVIDEAHHALAASYTEMWKRYPAAKKLGVTATPCRLNRRGFTELFEVLVTSWSIAEFIEKGVLSVFDYVSIRPGSEERRLIDGLEKRGADGDYQVKEMDAVLNRRPGIERLYRSVRQFASGKKGMVYAISIEHARRIAEYYSRRGVNAVAVDSKTPAMERKRMVEEFRHGKIEVLVNVDVFSEGFDCPDVEFVQLARPTLSLAKYLQQVGRGLRRSEGKEACMLIDNVGLYRIFGLPTQRWNWDAMFRGRMAGKGSLPGRMNCDASVTAFPVVERPAEAGGDLVVVMEHGRLLSSIREQALPDEKEQSPSCRLRAFVDKETGLWGLEKGDEMLPDASFKEVLSIKGRFAVGRLRNGCVRVLDDTGALVAEPGHCREVRFLKDDLLQVRHAGNSVSYVDLRNGRCYSVRPRVLRYGSIELLQANRTYYSRTRQVYANTCGLPSSSIVWMGFYVKMYDGRVPSRCRRMEDGGFCCEPQVCLLEGDEERAYYLSGRLPDQSIVVMDEEGRYYHVEKGHGKRYVACLEHHHHHH | failed |
| MLVTGVARQLGGRFVRRIQRDPNVDRVIAVDAVRPEHHLGGADFIQADIRQPTIARVLAEHSVDTVVHMDVTGTALGTGSRATVKETNVIGTMQLLGACQKSPTVKRLVVKSSTNVYGSAPRDPAVFTETTPPKSLPSGGFAKDTVEVEGYVRGFARRRPDVAVCVLRFANILGPSADSPLASYFSLPVLPTVFGYDPRLQFAHEDDVIDVLRIASYEPRRGTLNSGTFNVAGDGVLLLSQCARRLGRPTVPLLLPAVTWVGSAVRTLGMTDFSPEQIRLLTHGRVVATNQMRETLGYVPKYTTAETFADFARSRGPGLLPPEALAGAVDRIAALPALGGGHPPTQSAN | failed |
| MKRKAFLALGFLALGLGVSQVGPFRARLEAAIQTGGEAFAQVMLSQDKAQALCTQYRDKLPPELVPAFLAEQRALIKYPASGKLMGDWKNGEKVFTDPKRGNCYACHQGDPREVAYGTMGPSLTGYGQRGLSEAVVRYTYEKIYNAWAFVPCSLMYRGGVHGYFTPEETADLVAYLLSPESPINRR | failed |
| MKSENVNKRDEYQRVFSCFDKSHQGKVSVSTIERCVDAIKSGKRAVVDQEDTTNPNPEESTDDKSLELEDFVKLVEEGEEADKEKDLKEAFKLYEESEGITPKSLKRMLSLLGESKSLKDCEVMISQFDINRDGIINFDEFRAMMQ | failed |
| SDPDADRVGIACKNDKGEWVLINGNQTCLMYLYYIITQYNKLGKMTGNEFCVKTIVTTELIKKIADKNHIEMLDCYTGFKWIAREIRLREGKKKYIGGGEESYGFLAEDFVRDKDAVSACCLIAEVAAWAKDNGKTLYQLLMDIYVEYGFSKE | failed |
| MGTKRIGILTSGGDCPGLNAVIRAVVKASALKGWEVYGIPYGTDGFVEVAHGKYQAEDLLLTKHGYALPGMLKGLDVLQFLSGSVLGSLSKGHPEQPAIAEAILKGYAILDLEALIVIGGDGSLDIIYDLAQKGNWHIIAIPKTIDNDVPFTDLAVGFSTAVDIVTQALYDLTFTAASHERIIIVQVMGRDAGHLTLHAGIAGGADIILIPEITPCLTSEIIRNCCYQLMNLRKSGRHFALIVISEGVHDQNNKKNKHIADYLAEEISETSQHLCDIKDPAFCDLISLDIRATTLGHLQRSGTPLSFDRLLATVFGIRAVELIEQEIYDQVVIWRSGKVEHADLKPIISIIKECHQENRCPFPVDRDGFMVKTAKSLGIYLGED | failed |
| MSEDKDMKNRNAMTIKRFVDVEEDGEHGGSGEFAELFQESIKQHRVGEVVTGKVVHISNEFVLVDIGYKSEGCIAIDEFLDEDGNLTVKVGDEVKALFERKENQKGYAVLSRRKAERLAVWDVIDEAGGEGGIIEGKITGKVKGGLTVDIGVQAFLPASQVDLRPGGNLDKYIGTTDRFKVLKLNKKRGNIVLSRRVLMEEERESSRKETLATLAEGQVREGVVKNITDYGAFVDIGGVDGLLHVTDMSWGRLGHPSEILKPGDKLNVKVLKYDQEKGKISLGLKQVTPDPWVSVEQKYNQGDRVKGKVVSLTDYGAFIALEDGVEGLVHVSEMSWTRRLRHPSEILTVGDEVETVVLGVDMGNRRISLGLKQVQVNPWTQLEEKYPVGTKLEGQIKSITDFGVFIGIEEGIDGLVHVSDISWTKRIKHPGEVFTKGQTVQAVVLNIDPENERLSLGIKQLLLDPWSEIPVKYRPGTRVHGKVTSVTDFGVFLEIEEGIEGLIHVSELSREKVASPKEFTNVGDELDAVVLSVDESEKKIALSIKSLQMAAEKAEIESYMQAQGEATSNLGELLKVGFRKNGDGNDLEHHHHHH | failed |
| MNLKDLLAHRENLMDSAKRARSAITDDMDPADAAQAVENVKSIISEIESTDEAIAARRGVSDVTQKLKGLTITERGTENDSAASRSLGEHFVKAAGDRLKNQAAGAHIEYSVPEYQVKEDAHSSPKDLVEGWGTFYQRGIINQRRERLVAADLMGAATVTASTVKYIVEKANRIASGAPATVAEGTKKPYVKYADFDVVTESLSKVAALAKFTDEMIEDYDFVASWINNNLVYDLSVVEEKQLINGDGRGSNIKGLLNREGIQTHKSAKQADWFNDLFKAKNKVSQATNLEADGIMINPVNYEALRLTKDGNGQYIAGGPFQGQYGNGNILIDPPLWGIKTVVSNAVPAGTAIVGAFRQGATVLRKGGVRVDSANTNADDFENNLVTLRAEERLGLMVPLPAAFVKVTLEETTEEL | not failed |
| MKPNEVQIQLERLFRTPIEHPDSSKTAPIAISDLFVQIDPAAGEVQLFNDKDEELHRVVIYDWIQEGRTEIPSAMRQELRAAVKRLHAARFFDKDQFVRPFSVALTQEDFTIIEELLFIDDELIQLDSALLENLDEELNNFLAELLPDIKLEHHHHHH | not failed |
| DNDAEALLWSELRDRRLNGFKFVRQVAVGPYFADFACRDERLVVEVDGSQHQIGSGDARRDKFMVMNGWSVLRFWNTDIFNDRAAVLETIVAVLEKRLVREVRSAD | failed |
| MSAYIIETLIKILILVAVFSALGGFATYIERKVLAYFQRRLGPCYVGPFGLLQVAADGIKLFTKEDIIPQGANKFIFTLAPIIAMVSAFVSMAPIPFFPNFTLFGYEIKPLISDINIGFLFFLAVGSAGIYAPILAGLASNNKYSLIGSARATIQLLSFEVVSTLTILAPLMVVGSLSLVEINHYQSGGFLDWLVFKQPLAFVLFLIASYAELNRTPFDLLEHEAEIVAGYCTEYSGLKWGMFFLAEYAHLFAFSFVISIVFFGGFNAWGFIPGGIAILIKAGFFVFLSMWVRATYPHVRPDQLMDMCWKIMLPLALLNIVLTGIIILI | failed |
| MASFYWRIKNEPYQVVECAMRALHFSSRHNKDIALVNLANVLHRAHFPADAAVVVHAALDDSDFFTSYYTLGNIYAMLGEYNHSVLCYDHALQARPGFEQAIKRKHAVLCQQKLEQKLEAQHRSLQRTLNELKEYQKQHDHYLRQQEILEKHKLIQEEQILRNIIHETQMAKEAQLGNHQICRLVNQQHSLHCQWDQPVRYHRGDIFENVDYVQFGEDSSTSSMMSVNFDVQSNQSDINDSVKSSPVAHSILWIWGRDSDAYRDKQHILWPKRADCTESYPRVPVGGELPTYFLPPENKGLRIHELSSDDYSTEEEAQTPDCSITDFRKSHTLSYLVKELEVRMDLKAKMPDDHARKILLSRINNYTIPEEEIGSFLFHAINKPNAPIWLILNEAGLYWRAVGNSTFAIACLQRALNLAPLQYQDVPLVNLANLLIHYGLHLDATKLLLQALAINSSEPLTFLSLGNAYLALKNISGALEAFRQALKLTTKCPECENSLKLIRCMQFYPFLYNITSSVCSGNCHEKTLDNSHDKQKYFDNSQSLDAAEEEPSERGTEEDPVFSVENSGRDSDALRLESTVVEESNGSDEMENSDETKMSEEILALVDEFQQAWPLEGFGGALEMKGRRLDLQGIRVLKKGPRDGVARSSCYGDCRSEDDEATEWITFQVKRVKKPKGDHKKTPGKKVETGQIENGHRYQANLEITGPKVASPGPQGLLDWKTRKVP | failed |
